The target of the data set is YoaA (6xHis);chi (DNA polymerase III clamp loader subunit) (Escherichia coli;Escherichia coli, UniProt P76257;P28905 1-636;1-147, |). In words: fluorescein quenching titration; 0.5 mM ATPgS; rough estimate, no saturation; assay buffer B (composition not in the material) with 0.5 mM ATPgS, 50 nM DNA, YoaA-chi 0.1 nM-2 uM (Kd titration) or 1 uM; temperature and pH not given. The settings on record: protein: recombinant;recombinant, 6xHis (His-YoaA);, copies: 1;1, label: fluorescein, 20 bp, other end blunt.

The term Kd denotes a measure of binding affinity in units of concentration.

YoaA (6xHis);chi (DNA polymerase III clamp loader subunit), sequence (P76257 whole entry, chain 1 of 2): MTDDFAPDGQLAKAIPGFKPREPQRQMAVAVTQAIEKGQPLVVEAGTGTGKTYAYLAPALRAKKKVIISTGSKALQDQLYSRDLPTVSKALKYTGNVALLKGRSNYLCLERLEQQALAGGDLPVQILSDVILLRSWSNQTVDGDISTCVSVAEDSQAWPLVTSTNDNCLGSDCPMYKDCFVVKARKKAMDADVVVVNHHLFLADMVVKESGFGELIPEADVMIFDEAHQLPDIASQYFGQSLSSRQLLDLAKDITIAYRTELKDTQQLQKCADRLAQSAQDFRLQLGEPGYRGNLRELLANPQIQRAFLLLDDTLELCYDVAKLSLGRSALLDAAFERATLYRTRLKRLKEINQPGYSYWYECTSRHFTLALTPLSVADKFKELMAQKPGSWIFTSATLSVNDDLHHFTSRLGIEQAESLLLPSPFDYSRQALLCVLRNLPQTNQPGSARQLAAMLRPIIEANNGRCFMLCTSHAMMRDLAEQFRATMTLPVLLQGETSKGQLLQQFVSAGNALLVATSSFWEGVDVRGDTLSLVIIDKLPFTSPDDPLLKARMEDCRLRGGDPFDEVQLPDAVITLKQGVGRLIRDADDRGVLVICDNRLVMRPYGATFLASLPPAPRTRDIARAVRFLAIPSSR
YoaA (6xHis);chi (DNA polymerase III clamp loader subunit), sequence (P28905 whole entry, chain 2 of 2): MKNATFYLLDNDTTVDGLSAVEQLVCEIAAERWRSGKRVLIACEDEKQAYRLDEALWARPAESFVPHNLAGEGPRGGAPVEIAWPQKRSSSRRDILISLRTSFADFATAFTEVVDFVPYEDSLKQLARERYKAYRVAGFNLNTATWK

B1: B3 forked duplex (S4 + S5) (dsDNA)
DNA 1: TTTTTTTTTTTTTTTTTTTTTTTTTTTTTTTTTTTATAAAAGGGACATTCTGGCC
DNA 2: GGCCAGAATGTCCCTTTTATTACTGGTCGT
modifications: fluorescein at T15 of strand 2 (printed F, written as T)
With B1, the Kd (fork: 35 nt 5' overhang on strand 1, 10 nt 3' overhang on strand 2) was about 328 nM.

B2: B2 5' overhang duplex (S18 + S5) (dsDNA)
DNA 1: B1 DNA 1
DNA 2: GGCCAGAATGTCCCTTTTAT
modifications: fluorescein at T15 of strand 2 (printed F, written as T), 6 nt from junction
With B2, under “35 nt 5' overhang on strand 1”, the equilibrium dissociation constant (Kd) was about 350 nM.

(Values after publication PMC9826845, “Characterization of the Escherichia coli XPD/Rad3 iron-sulfur helicase YoaA in complex with the DNA polymerase III clamp loader subunit chi (χ)”.)
